Data published in patent US20250333541A1, “ANTIBODY, AND DRUG CONJUGATE AND USE THEREOF” (EVOPOINT BIOSCIENCES CO., LTD., priority 2022, published 2025).
Numbering of substitutions follows the chain as printed.

B1: 22F11H5-hz1 (antibody, human IgG1, kappa, V domains shown)
VH: QVQLVQSGAEVKQPGASVKVSCKASGYTFTTYWMHWVRQAPGQGLEWMGMIDPSDSYTTYAQKFQGRVTLTVDTSTSTAYMELSSLRSEDTAVYYCARGSGPGLFAYWGQGTLVTVSS
VL: DIQETQSPSSLSASVGDRVTITCRASQDIRNYLNWYQQKPGKAPKLLIYHTSRLQSGVPSRFSGSGSGTDYTLTISSLQPEDFATYYCQQGNMPPYTFGQGTKVEIKR
notes: Humanized IgG1 kappa
B2: 27H8H3-hz1 (antibody, human IgG1, kappa, V domains shown)
VH: B1 VH with Q13K, T59S, A97T
VL: B1 VL with D28G, R30S, Q55H, G66V, Y71F, Y87F, M93T, P94L
notes: Humanized IgG1 kappa

Key:
[1] = biological target: T1, human TF-His (human, UniProt P13726 33-251); test: antigenic protein-based ELISA on TF antigen (coating antigen not named, taken as human TF-His), antibody kept 14 days in human serum at 37 C
T1 construct: range 33-251; Recombinant extracellular segment expressed in HEK293-EBNA cells and purified on a nickel column; also called h.TF-His; h; TF-his; not shown: His tag from vector pTT5-His
Protocol: The ELISA plate was coated overnight with TF antigen (h.TF-His or c.TF-His antigen) in 50 mM carbonate coating buffer (CBS coating solution) at a coating concentration of 1 μg/mL in a volume of 100 μL at 4° C. The next day, the coating solution was removed, each well was washed once with 300 μL of PBS, and 100 μL of 2% BSA (Biotopped, A6020) in PBS was added to each well for blocking at 37° C. for 2 h. The test sample was subjected to a gradient dilution with 2% BSA in PBS to establish 11 concentration points. 100 μL of each of the samples obtained by the gradient dilution was added to the plate, and the plate was incubated at 37° C. for 2 h. The supernatant was removed, and each well was washed three times with 300 μL of PBST. 100 μL of HRP-conjugated secondary antibody in 2% BSA was added to each well, and the plate was incubated at 37° C. for 1 h. […] At the end of the incubation, the secondary antibody was removed, each well was washed five times with 300 μL of PBST, and 100 μL of TMB substrate (Huzhou InnoReagents Co., Ltd., TMB-S-004) was added to each well for color development for 5-20 min. 50 μL of 2 N HCl was added to each well to stop the reaction, and OD450 nm values were read using a microplate reader (manufacturer: MD, model: SpectraMax) and imported into GraphPad software for fitting and plotting to determine the binding of the samples to TF antigenic proteins. […]

[2] = biological target: T1, human TF-His; test: ELISA, plate coated with h.TF-His
Protocol: (§1) The ELISA plate was coated overnight with TF antigen (h.TF-His or c.TF-His antigen) in 50 mM carbonate coating buffer (CBS coating solution) at a coating concentration of 1 μg/mL in a volume of 100 μL at 4° C. The next day, the coating solution was removed, each well was washed once with 300 μL of PBS, and 100 μL of 2% BSA (Biotopped, A6020) in PBS was added to each well for blocking at 37° C. for 2 h. The test sample was subjected to a gradient dilution with 2% BSA in PBS to establish 11 concentration points. 100 μL of each of the samples obtained by the gradient dilution was added to the plate, and the plate was incubated at 37° C. for 2 h. The supernatant was removed, and each well was washed three times with 300 μL of PBST. 100 μL of HRP-conjugated secondary antibody in 2% BSA was added to each well, and the plate was incubated at 37° C. for 1 h. […] At the end of the incubation, the secondary antibody was removed, each well was washed five times with 300 μL of PBST, and 100 μL of TMB substrate (Huzhou InnoReagents Co., Ltd., TMB-S-004) was added to each well for color development for 5-20 min. 50 μL of 2 N HCl was added to each well to stop the reaction, and OD450 nm values were read using a microplate reader (manufacturer: MD, model: SpectraMax) and imported into GraphPad software for fitting and plotting to determine the binding of the samples to TF antigenic proteins.
The assay was performed as described in the general methods. Briefly, an ELISA plate coated with a human TF-his protein or a cynomolgus monkey TF-his protein was blocked with 2% BSA at 37° C. for 2 h, and each of the antibodies obtained by the gradient dilution (starting at 10 μg/mL, 3-fold graded dilution, 11 concentration points) was added. The plate was incubated at 37° C. for 2 h.

[3] = biological target: T2, tissue factor (TF) on the surface of TF-positive tumor cells (human, UniProt P13726 33-295); test: cell-based or functional assay
[4] = biological target: T2, tissue factor (TF) on the surface of …; test: cell-based or functional assay; remark: listed apart in the source
[5] = biological target: T2, tissue factor (TF) on the surface of …; test: cell-based or functional assay; remark: listed apart in the source
[6] = biological target: T1, human TF-His; test: antigenic protein-based ELISA, before conjugation (TF antigen species not stated)
Protocol: as §1

[7] = biological target: T1, human TF-His; test: BLI (ForteBio Octet), antibody on ProA sensor, TF-His as analyte
Protocol: The dynamic affinity of the humanized antibodies was determined by ForteBio. The experimental procedures were as follows: a ProA sensor (18-5010, Octet) was taken out and pre-wetted with a PBST diluent (pH 7.4) for 10 min. The antibodies to be immobilized were diluted to 5 μg/mL. […] The program was set up, the sensor plate and sample plate were put in, then the program started. The sensor was regenerated with 20 mM glycine solution (pH 1.7). The data were analyzed using Octet analysis software to derive a result graph.

[8] = biological target: T2, tissue factor (TF) on the surface of …; test: cell ELISA on fixed NCI-H358 cells
Protocol: TF antigen-positive cells (MDA-MB-231 or NCI-H358 cells) were seeded into a 96-well plate at 5×10⁴ cells/well one day prior to the experiment. On the day of the experiment, the culture supernatant was removed, each well was washed once with 300 μL of PBS, and 100 μL of 4% paraformaldehyde was added to each well for immobilization at room temperature for 20 min. The paraformaldehyde was removed, and each well was washed twice with 300 μL of PBS, and 100 μL of 2% BSA in PBS was added to each well for blocking at 37° C. for 2 h. After the blocking was completed, 30 μL of the test sample (hybridoma supernatant or purified antibody) was added to each well and the plate was incubated at 37° C. for 2 h. The liquid was removed, and each well was washed three times with 300 μL of PBST. 100 μL of HRP-conjugated secondary antibody in 2% BSA was added to each well, and the plate was incubated at 37° C. for 1 h. […] The secondary antibody was removed, each well was washed five times with 300 μL of PBST, and 100 μL of TMB substrate (Huzhou InnoReagents Co., Ltd., TMB-S-004) was added to each well for color development for 5-20 min. 50 μL of 2 N HCl was added to each well to stop the reaction, and OD450 nm values were read using a microplate reader (manufacturer: MD, model: SpectraMax) to determine the binding of the samples to TF-positive cells.
The assay was performed as described in the general methods. Briefly, TF antigen-positive NCI-H358 cells were digested with trypsin, collected, seeded into a 96-well plate at 5×10⁴ cells/well and incubated overnight, and then immobilized with 4% paraformaldehyde. After the paraformaldehyde was removed and the cells were washed with PBS, the plate was blocked with 2% BSA at 37° C. for 2 h. Each of the antibodies obtained by the gradient dilution (starting at 10 μg/mL, 3-fold graded dilution, 11 concentration points) was added. The plate was incubated at 37° C. for 2 h.

Row | Binder | EC50 (read off the curve) [1] | EC50 [2] | IC50 (ng/mL), inhibition of FVIIa-induced IL-8 release by MDA-MB-231 cells [3] | Maximum inhibition rate (%), FVIIa-induced IL-8 release by MDA-MB-231 cells [3] | coagulation time V50 (s), MDA-MB-231 cells + human plasma, 2 mM Ca2+, 50 µg/mL antibody [4] | coagulation time V50 (s), MDA-MB-231 cells + human plasma, 5 mM Ca2+, 20 µg/mL antibody [4] | Endocytosis rate (%) on NCI-H358 cells, 2 h [5] | Endocytosis rate (%) on NCI-H358 cells, 4 h [5] | EC50 [6] | Kd [7] | koff [7] | kon [7] | EC50 [8]
1 | B1 | ~30 ng/mL | 8.58 ng/mL | 180 ng/mL | 94.3% | 1640 s | 49.4 s | 34.3% | 56.1% | 5.15 ng/mL | 9.8 nM | 0.00296 s⁻¹ | 302000 M⁻¹ s⁻¹ | 0.012 µg/mL
2 | B2 | ~50 ng/mL | 8.15 ng/mL | 463 ng/mL | 100% | 750 s | 26.2 s | 49.2% | 73.4% | 3.13 ng/mL | 42.5 nM | 0.0116 s⁻¹ | 273000 M⁻¹ s⁻¹ | 0.0348 µg/mL
